Experimental data as given in publication PMC5711770, “Acetylome of Acinetobacter baumannii SK17 Reveals a Highly-Conserved Modification of Histone-Like Protein HU” (Frontiers in Molecular Biosciences, 2017).

B1: wild-type HU with a C-terminal His-tag (Acinetobacter baumannii SK17 histone-like DNA-binding protein HU) (natural protein, UniProt A0ABX6CHP0 1-90, looked up)
chain: MNKSELIDAIAEKGGVSKTDAGKALDATIASITEALKKGDTVTLVGFGTFSVKERAARTGRNPKTGEELQIKATKVPSFKAGKGLKDSVA
notes: cloned whole between NdeI and XhoI of pET-21a(+); also called wt HU; wt; source: E. coli BL21(DE3), purified (Ni-NTA, cation-exchange chromatography); not shown: His6, C-terminal, kept
B2: HU(K13ac), HU acetylated at Lys13, with a C-terminal His-tag (natural protein, Acinetobacter baumannii SK17, UniProt A0ABX6CHP0 1-90, looked up)
chain: MNKSELIDAIAEKGGVSKTDAGKALDATIASITEALKKGDTVTLVGFGTFSVKERAARTGRNPKTGEELQIKATKVPSFKAGKGLKDSVA
modifications: acetyllysine at residue 13
notes: the codon of Lys13 replaced by an amber codon for site-specific incorporation of acetyllysine; also called Lys13-acetylated HU; not shown: His6, C-terminal, kept
B3: biotin-labeled dsDNA (BLI) (dsDNA)
DNA 1: ATTAATATTTTCTTAAACTAATTTAAAAT
DNA 2: ATTTTAAATTAGTTTAAGAAAATATTAAT

Assays:
[1] = molecular target: the molecule itself; assay: SEC; analytical size-exclusion chromatography, Superdex 75 10/300 GL, PBS, 0.5 ml/min; size judged against ovalbumin (44 kDa) and myoglobin (17 kDa) markers
[2] = molecular target: HU (wt*, without His-tag) (Acinetobacter baumannii SK17, UniProt A0ABX6CHP0); assay: BLI; BLI: 30 mM Tris pH 7.5, 100 mM NaCl, 0.02% Tween20, 0.5 mg/ml BSA, 25°C; EMSA: same buffer, 37°C 1 h, 250 ng DNA in 10 µl, 1% agarose in TAE; AFM: 10 mM HEPES pH 7.5, 4 mM MgCl2; conditions: protein: recombinant; tags: none; N-terminal GA remains after TEV cleavage; chain copies: 2; label: 5'-biotin on strand 1; (only one strand printed)
[3] = molecular target: HU (wt, C-terminal His-tag) (Acinetobacter baumannii SK17, UniProt A0ABX6CHP0); assay: as above; conditions: protein: recombinant; chain copies: 2; label: 5'-biotin on strand 1; (only one strand printed)
[4] = molecular target: HU(K13ac) (C-terminal His-tag) (Acinetobacter baumannii SK17, UniProt A0ABX6CHP0, K13ac); assay: BLI; kon and koff several-fold lower than wt; BLI: 30 mM Tris pH 7.5, 100 mM NaCl, 0.02% Tween20, 0.5 mg/ml BSA, 25°C; EMSA: same buffer, 37°C 1 h, 250 ng DNA in 10 µl, 1% agarose in TAE; AFM: 10 mM HEPES pH 7.5, 4 mM MgCl2; conditions: protein: recombinant; chain copies: 2; label: 5'-biotin on strand 1; (only one strand printed)

Binder | stoichiometry N [1] | Kd [2] | Kd [3] | Kd [4]
B1 | 2 | – | – | –
B2 | 2 | – | – | –
B3 | – | 276 ± 143 nM | 349 ± 352 nM | 184 ± 9.3 nM
